Source: patent US20180318418A1 (UNIQUEST, published 2018)

How the values were obtained:
Assay in all cases: dot blot, peptide on PVDF membrane
[1] = biological target: T1, peptide 05/08 (BARF1 201-221) (Epstein-Barr virus)
T1 construct: Spotted on PVDF membrane for dot blot; also called 05/08201-221
T1 peptide: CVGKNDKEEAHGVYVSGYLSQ

[2] = biological target: T2, peptide 06/08 (BARF1 104-120) (Epstein-Barr virus)
T2 construct: Spotted on PVDF membrane for dot blot; also called 06/08104-120
T2 peptide: CRMKLGETEVTKQEHLS

peptide 08/08-2 = biological target: T3, peptide 08/08-2 (Epstein-Barr virus)
T3 construct: 8-mer derived from 08/08 (BARF1 27-40)
T3 peptide: TSYWRRVS

peptide 08/08-2′ = biological target: T4, peptide 08/08-2′ (Epstein-Barr virus)
T4 construct: 7-mer derived from 08/08′ (BARF1 28-38)
T4 peptide: TSYWRRV

Measured: binding result

B1: anti-BARF1 3D4 monoclonal antibody (antibody, V domains shown)
VH: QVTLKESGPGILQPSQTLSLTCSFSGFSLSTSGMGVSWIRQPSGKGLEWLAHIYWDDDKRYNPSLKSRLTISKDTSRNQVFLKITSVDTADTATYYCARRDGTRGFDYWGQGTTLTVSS
VL: QIVLTQSPAIMSASLGERVTMTCTATSSVSSSYLHWYQQKPGSSPKLWIYSTSNLASGVPARFSGSGSGTSYSLTISSMEAEDAATYYCHQYHRSPPWTFGGGTKLEIK
notes: also called 3D4 mAb; clone 3D4
no binding (tested: about 10 µg/spot): all assays above
